Experimental data reported in IntAct's records for PubMed 31515488.

B1: Protein SSX3 (Homo sapiens), Q99909 (parent)
chain: MNGDDTFARRPTVGAQIPEKIQKAFDDIAKYFSKEEWEKMKVSEKIVYVYMKRKYEAMTKLGFKAILPSFMRNKRVTDFQGNDFDNDPNRGNQVQRPQMTFGRLQGIFPKIMPKKPAEEGNVSKEVPEASGPQNDGKQLCPPGKPTTSEKINMISGPKRGEHAWTHRLRERKQLVIYEEISDPEEDDE
partner: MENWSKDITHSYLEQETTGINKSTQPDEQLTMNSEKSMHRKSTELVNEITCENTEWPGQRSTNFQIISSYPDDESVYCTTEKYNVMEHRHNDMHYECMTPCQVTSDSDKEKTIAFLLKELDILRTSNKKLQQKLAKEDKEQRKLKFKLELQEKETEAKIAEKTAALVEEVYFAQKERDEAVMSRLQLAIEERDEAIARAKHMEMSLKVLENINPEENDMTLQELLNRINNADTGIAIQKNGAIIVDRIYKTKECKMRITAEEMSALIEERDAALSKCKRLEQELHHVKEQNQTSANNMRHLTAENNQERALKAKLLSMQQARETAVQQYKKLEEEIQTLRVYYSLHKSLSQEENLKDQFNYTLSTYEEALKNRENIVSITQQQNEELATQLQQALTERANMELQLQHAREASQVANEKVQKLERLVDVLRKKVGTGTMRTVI
B2: Angiomotin (Homo sapiens), Q4VCS5 (parent)
chain: MRNSEEQPSGGTTVLQRLLQEQLRYGNPSENRSLLAIHQQATGNGPPFPSGSGNPGPQSDVLSPQDHHQQLVAHAARQEPQGQEIQSENLIMEKQLSPRMQNNEELPTYEEAKVQSQYFRGQQHASVGAAFYVTGVTNQKMRTEGRPSVQRLNPGKMHQDEGLRDLKQGHVRSLSERLMQMSLATSGVKAHPPVTSAPLSPPQPNDLYKNPTSSSEFYKAQGPLPNQHSLKGMEHRGPPPEYPFKGMPPQSVVCKPQEPGHFYSEHRLNQPGRTEGQLMRYQHPPEYGAARPAQDISLPLSARNSQPHSPTSSLTSGGSLPLLQSPPSTRLSPARHPLVPNQGDHSAHLPRPQQHFLPNQAHQGDHYRLSQPGLSQQQQQQQQQHHHHHHHQQQQQQQPQQQPGEAYSAMPRAQPSSASYQPVPADPFAIVSRAQQMVEILSDENRNLRQELEGCYEKVARLQKVETEIQRVSEAYENLVKSSSKREALEKAMRNKLEGEIRRMHDFNRDLRERLETANKQLAEKEYEGSEDTRKTISQLFAKNKESQREKEKLEAELATARSTNEDQRRHIEIRDQALSNAQAKVVKLEEELKKKQVYVDKVEKMQQALVQLQAACEKREQLEHRLRTRLERELESLRIQQRQGNCQPTNVSEYNAAALMELLREKEERILALEADMTKWEQKYLEENVMRHFALDAAATVAAQRDTTVISHSPNTSYDTALEARIQKEEEEILMANKRCLDMEGRIKTLHAQIIEKDAMIKVLQQRSRKEPSKTEQLSCMRPAKSLMSISNAGSGLLSHSSTLTGSPIMEEKRDDKSWKGSLGILLGGDYRAEYVPSTPSPVPPSTPLLSAHSKTGSRDCSTQTERGTESNKTAAVAPISVPAPVAAAATAAAITATAATITTTMVAAAPVAVAAAAAPAAAAAPSPATAAATAAAVSPAAAGQIPAAASVASAAAVAPSAAAAAAVQVAPAAPAPVPAPALVPVPAPAAAQASAPAQTQAPTSAPAVAPTPAPTPTPAVAQAEVPASPATGPGPHRLSIPSLTCNPDKTDGPVFHSNTLERKTPIQILGQEPDAEMVEYLI
partner: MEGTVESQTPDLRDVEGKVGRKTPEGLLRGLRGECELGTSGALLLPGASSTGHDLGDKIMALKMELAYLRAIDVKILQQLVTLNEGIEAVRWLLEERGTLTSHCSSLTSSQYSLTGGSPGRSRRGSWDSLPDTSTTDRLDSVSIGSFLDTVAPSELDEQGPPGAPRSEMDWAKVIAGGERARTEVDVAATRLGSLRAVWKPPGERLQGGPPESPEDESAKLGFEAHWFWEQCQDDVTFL
B3: Serine/threonine-protein phosphatase 2A activator (Homo sapiens), Q15257 (parent)
chain: MAEGERQPPPDSSEEAPPATQNFIIPKKEIHTVPDMGKWKRSQAYADYIGFILTLNEGVKGKKLTFEYRVSEMWNEVHEEKEQAAKQSVSCDECIPLPRAGHCAPSEAIEKLVALLNTLDRWIDETPPVDQPSRFGNKAYRTWYAKLDEEAENLVATVVPTHLAAAVPEVAVYLKESVGNSTRIDYGTGHEAAFAAFLCCLCKIGVLRVDDQIAIVFKVFNRYLEVMRKLQKTYRMEPAGSQGVWGLDDFQFLPFIWGSSQLIDHPYLEPRHFVDEKAVNENHKDYMFLECILFITEMKTGPFAEHSNQLWNISAVPSWSKVNQGLIRMYKAECLEKFPVIQHFKFGSLLPIHPVTSG
B4: Pleckstrin homology domain-containing family G member 6 (Homo sapiens), Q3KR16 (parent)
chain: MKAFGPPHEGPLQGLVASRIETYGGRHRASAQSTAGRLYPRGYPVLDPSRRRLQQYVPFARGSGQARGLSPMRLRDPEPEKRHGGHVGAGLLHSPKLKELTKAHELEVRLHTFSMFGMPRLPPEDRRHWEIGEGGDSGLTIEKSWRELVPGHKEMSQELCHQQEALWELLTTELIYVRKLKIMTDLLAAGLLNLQRVGLLMEVSAETLFGNVPSLIRTHRSFWDEVLGPTLEETRASGQPLDPIGLQSGFLTFGQRFHPYVQYCLRVKQTMAYAREQQETNPLFHAFVQWCEKHKRSGRQMLCDLLIKPHQRITKYPLLLHAVLKRSPEARAQEALNAMIEAVESFLRHINGQVRQGEEQESLAAAAQRIGPYEVLEPPSDEVEKNLRPFSTLDLTSPMLGVASEHTRQLLLEGPVRVKEGREGKLDVYLFLFSDVLLVTKPQRKADKAKVIRPPLMLEKLVCQPLRDPNSFLLIHLTEFQCVSSALLVHCPSPTDRAQWLEKTQQAQAALQKLKAEEYVQQKRELLTLYRDQDRESPSTRPSTPSLEGSQSSAEGRTPEFSTIIPHLVVTEDTDEDAPLVPDDTSDSGYGTLIPGTPTGSRSPLSRLRQRALRRDPRLTFSTLELRDIPLRPHPPDPQAPQRRSAPELPEGILKGGSLPQEDPPTWSEEEDGASERGNVVVETLHRARLRGQLPSSPTHADSAGESPWESSGEEEEEGPLFLKAGHTSLRPMRAEDMLREIREELASQRIEGAEEPRDSRPRKLTRAQLQRMRGPHIIQLDTPLSASEV
partner: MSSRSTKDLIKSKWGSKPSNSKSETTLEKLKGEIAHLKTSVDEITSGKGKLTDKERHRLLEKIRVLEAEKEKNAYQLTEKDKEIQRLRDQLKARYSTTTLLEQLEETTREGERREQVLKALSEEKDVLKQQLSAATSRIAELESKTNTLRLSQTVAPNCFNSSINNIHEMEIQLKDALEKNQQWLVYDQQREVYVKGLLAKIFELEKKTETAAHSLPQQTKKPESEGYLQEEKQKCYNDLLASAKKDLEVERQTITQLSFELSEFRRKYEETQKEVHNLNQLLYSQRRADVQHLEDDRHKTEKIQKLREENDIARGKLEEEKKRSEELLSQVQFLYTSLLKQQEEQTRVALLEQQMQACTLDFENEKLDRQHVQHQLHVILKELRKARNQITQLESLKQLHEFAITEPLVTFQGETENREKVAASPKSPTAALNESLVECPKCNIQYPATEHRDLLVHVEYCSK
B5: Syntenin-2 (Homo sapiens), Q9H190 (parent)
chain: MSSLYPSLEDLKVDQAIQAQVRASPKMPALPVQATAISPPPVLYPNLAELENYMGLSLSSQEVQESLLQIPEGDSTAVSGPGPGQMVAPVTGYSLGVRRAEIKPGVREIHLCKDERGKTGLRLRKVDQGLFVQLVQANTPASLVGLRFGDQLLQIDGRDCAGWSSHKAHQVVKKASGDKIVVVVRDRPFQRTVTMHKDSMGHVGFVIKKGKIVSLVKGSSAARNGLLTNHYVCEVDGQNVIGLKDKKIMEILATAGNVVTLTIIPSVIYEHMVKKLPPVLLHHTMDHSIPDA
partner: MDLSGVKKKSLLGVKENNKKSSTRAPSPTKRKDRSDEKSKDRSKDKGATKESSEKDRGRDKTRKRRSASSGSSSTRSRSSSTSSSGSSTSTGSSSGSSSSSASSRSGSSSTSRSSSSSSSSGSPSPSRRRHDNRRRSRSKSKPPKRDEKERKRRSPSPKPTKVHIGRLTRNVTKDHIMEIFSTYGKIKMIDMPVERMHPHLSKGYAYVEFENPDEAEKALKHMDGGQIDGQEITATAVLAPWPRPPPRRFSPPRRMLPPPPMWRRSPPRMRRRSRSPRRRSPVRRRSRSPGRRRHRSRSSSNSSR
B6: Nucleoporin p54 (Homo sapiens), Q7Z3B4 (parent)
chain: MAFNFGAPSGTSGTAAATAAPAGGFGGFGTTSTTAGSAFSFSAPTNTGTTGLFGGTQNKGFGFGTGFGTTTGTSTGLGTGLGTGLGFGGFNTQQQQQTTLGGLFSQPTQAPTQSNQLINTASALSAPTLLGDERDAILAKWNQLQAFWGTGKGYFNNNIPPVEFTQENPFCRFKAVGYSCMPSNKDEDGLVVLVFNKKETEIRSQQQQLVESLHKVLGGNQTLTVNVEGTKTLPDDQTEVVIYVVERSPNGTSRRVPATTLYAHFEQANIKTQLQQLGVTLSMTRTELSPAQIKQLLQNPPAGVDPIIWEQAKVDNPDSEKLIPVPMVGFKELLRRLKVQDQMTKQHQTRLDIISEDISELQKNQTTSVAKIAQYKRKLMDLSHRTLQVLIKQEIQRKSGYAIQADEEQLRVQLDTIQGELNAPTQFKGRLNELMSQIRMQNHFGAVRSEERYYIDADLLREIKQHLKQQQEGLSHLISIIKDDLEDIKLVEHGLNETIHIRGGVFS
partner: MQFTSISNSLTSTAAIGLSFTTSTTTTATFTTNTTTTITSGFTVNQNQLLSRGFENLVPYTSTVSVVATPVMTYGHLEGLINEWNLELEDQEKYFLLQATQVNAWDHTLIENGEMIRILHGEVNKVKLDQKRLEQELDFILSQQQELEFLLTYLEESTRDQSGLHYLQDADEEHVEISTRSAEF
B7: Gem-associated protein 6 (Homo sapiens), Q8WXD5 (parent)
chain: MSEWMKKGPLEWQDYIYKEVRVTASEKNEYKGWVLTTDPVSANIVLVNFLEDGSMSVTGIMGHAVQTVETMNEGDHRVREKLMHLFTSGDCKAYSPEDLEERKNSLKKWLEKNHIPITEQGDAPRTLCVAGVLTIDPPYGPENCSSSNEIILSRVQDLIEGHLTASQ

Variants of: B1
Settings: with mipo1_human MIPOL1, Q8TD10

Variant | effect of a mutation on the interaction
R159S | with no effect

Variants of: B2
Settings: with lura1_human LURAP1, Q96LR2

effect of a mutation on the interaction | Variant
with no effect | T899A

Variants of: B3
Settings: with amot_human AMOT

effect of a mutation on the interaction | Variant
with no effect | K218T

Variants of: B4
Settings: with cep55_human CEP55, Q53EZ4

effect of a mutation on the interaction | Variant
with no effect | P542S
with no effect | R763Q
with no effect | R627W

Variants of: B5
Settings: with rnps1_human RNPS1, Q15287

effect of a mutation on the interaction | Variant
with no effect | V182M
disrupting interaction strength | G242R
disrupting interaction strength | G225R

Variants of: B6
Settings: with NUP62CL

effect of a mutation on the interaction | Variant
with no effect | R385K
with no effect | N250S

Variants of: B6
Settings: with NUP62CL
Remark: another data set of the same source

effect of a mutation on the interaction | Variant
with no effect | T416A

Variants of: B7
Settings: with gemi7_human GEMIN7, Q9H840
Chain of gemi7_human GEMIN7, Q9H840 (Q9H840 whole entry): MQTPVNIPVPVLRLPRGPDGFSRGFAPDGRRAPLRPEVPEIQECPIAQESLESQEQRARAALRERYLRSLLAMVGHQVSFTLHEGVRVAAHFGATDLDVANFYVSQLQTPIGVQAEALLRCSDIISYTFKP

effect of a mutation on the interaction | Variant
with no effect | V57L
